Results taken from patent US11766444B2, “Pharmaceutical composition for preventing or treating degenerative brain disorders including HDL-APOM-S1P as active ingredient” (Kyungpook National University Industry-Academic Cooperation …, priority 2017, dated 2023).

Columns and labels:
Format in all cases: in vivo, mouse
astrocytes = assay: Activity of astrocytes (GFAP staining), neuroinflammatory response; conditions: APP/PS1 mice, brain tissue, vs untreated APP/PS1 mice
Excerpt: (§1) Transgenic mice overexpressing hAPP695swe (APPswe) and presenilin-1M146V (PS1) mutations were used as mouse models of the Alzheimer's disease. These are mouse lines produced by GlaxoSmithKline (Harlow, UK) with the standard technology for C57BL background (Charles River, UK), which double heterozygote mutant mice (APP/PS1 tg mice) were produced by backcrossing APPswe mice with pure C57BL/6 backgrounds and crossing PS1 mice
(§2) After collecting blood from mice, the obtained blood was separated into erythrocytes and plasma by centrifugation. The separated erythrocytes are reacted with 10 uM sphingosine at 37° C. for 1 hour, and then reacted for 1 hour at 37° C. after mixing again with the separated plasma. […]
(§3) After fixing the cerebral (especially cortex) and hippocampus of mice with 4% paraformaldehyde, the immobilized tissues were incubated with 0.5% thioflavin S (Sigma-Aldrich) or anti-20G10 against Aβ42 (mouse, 1:1000), anti-G30 against Aβ40 (rabbit, 1:1000), anti-lba-1 (rabbit, 1:500, Wako), and anti-GFAP (rabbit, 1:500, DAKO), respectively. […] The sites were analyzed using a laser scanning confocal microscope or Olympus BX51 microscope equipped with Fluoview SV1000 imaging software (Olympus FV1000, Japan). Metamorph software (Molecular Devices) was used to quantify the percentage of area of stained area to area of total tissue. […]

microglia = assay: Activity of microglia (Iba1 staining), neuroinflammatory response; conditions: APP/PS1 mice, brain tissue, vs untreated APP/PS1 mice
Excerpt: as §1, §2, §3

APP/PS1 mice = assay: Morris water maze (MWM) test; conditions: 10 days training, probe trial day 11
Excerpt: as §1
(§4) After collecting blood from mice, the obtained blood was separated into erythrocytes and plasma by centrifugation. The separated erythrocytes are reacted with 10 uM sphingosine at 37° C. for 1 hour, and then reacted for 1 hour at 37° C. after mixing again with the separated plasma. After completion of the reaction, erythrocytes and plasma were separated by centrifugation, and only the plasma was collected again. The plasma thus obtained was loaded with S1P in HDL (HDL-ApoM-S1P loading), which was illustrated in FIG. 1.
The plasma solution thus obtained was intravenously injected 25 μl into mice twice a week for 4 weeks (total 8 times) according to the experimental outline shown in FIG. 2. […]
In order to identify potential effects on learning and memory, Morris water maze (MWM) and fear conditioning experiments were performed according to known methods. […] All experiments were recorded using a charge-coupled device (CCD) camera with video monitor and computer. […]

amyloid-β = assay: Amyloid-β deposition in brain tissue (cerebral cortex), thioflavin S staining and immunofluorescence; conditions: APP/PS1 mice, vs 9-month-old untreated APP/PS1 mice
Excerpt: as §1, §2, §3

[1] = S1P, ApoM, HDL-S1P and HDL-ApoM levels in plasma of APP/PS1 mice after HDL-ApoM-S1P loading; conditions: i.v. 25 μl twice a week for 4 weeks (8 times), vs untreated APP/PS1 mice
Excerpt: as §1, §4
The plasma solution thus obtained was intravenously injected 25 μl into mice twice a week for 4 weeks (total 8 times) according to the experimental outline shown in FIG. 2. As a control group, 3 μM S1P (Avanti) and […] ApoM (Mybiosource, SEQ ID NO: 1) were injected intravenously with 25 μl in mice twice a week for 4 weeks (eight times in total).
To collect blood from mouse models (APP/PS1 tg mice or APP/PS1/ApoM tg mice) and normal control mice (WT), the mice were anesthetized first, and 500 μl to 700 μl of blood were collected in heparin tubes (BD Falcon) by cardiac drawing. Each blood sample was then centrifuged at 1,200 rpm for 5 minutes to separate plasma from the supernatant. This plasma sample was stored at −80° C. before being used for analysis.
60 μl of plasma sample was placed in the ultrafast centrifuge tube, and then the same amount of PBS (Gibco) solution was added to form a layer on the plasma. A high speed centrifuge (HITACHI cp100wx Centrifuge P70AT rotor) was used to centrifuge at 70,000 rpm for 3 hours at 4° C. 60 μl of the lower layer of the sample separated into two layers was transferred into a new ultra-centrifuge tube. […]
Extraction and quantification of S1P was performed in the following manner. […] The dried lipid extract was resuspended in 25 μl of 0.2% Igepal CA-630 (Sigma-Aldrich), and the concentration level of each lipid was quantified by the UPLC system using the column ACQUITY BEH Shield RP18 1.7 μm 2.1×50 mm (186002853) and 0.1% of NH4OH.
Using a commercial ELISA kit (CUSABIO Human ApoM ELISA Kit and Mouse ApoM ELISA Kit), the amount of apolipoprotein M (ApoM) contained in the mouse plasma or HDL fractionated therefrom was quantified according to the manufacturer's protocol. […]

tau = assay: Tau deposition in brain tissue (AT8 immunofluorescence); conditions: APP/PS1 mice, cerebral cortex, vs 9-month-old untreated APP/PS1 mice
Excerpt: as §1, §2, §3

B1: ApoM: control, ApoM (Mybiosource, SEQ ID NO: 1) (protein)
chain: MFHQIWAALLYFYGIILNSIYQCPEHSQLTTLGVDGKEFPEVHLGQWYFIAGAAPTKEELATFDPVDNIVFNMAAGSAPMQLHLRATIRMKDGLCVPRKWIYHLTEGSTDLRTEGRPDMKTELFSSSCPGGIMLNETGQGYQRFLLYNRSPHPPEKCVEEFKSLTSCLDSKAFLLTPRNQEACELSNN
modifications: ApoM
- inflammatory activity of astrocytes (astrocytes): no significant difference
- inflammatory activity of microglia (microglia): no significant difference
- learning and memory (spatial memory formation), MWM (APP/PS1 mice): severe impairment
- Aβ40 deposition in brain tissue (amyloid-β): did not show a significant difference
- Aβ42 deposition in brain tissue (amyloid-β): did not show a significant difference
- level of ApoM in plasma [1]: did not show a difference
- level of HDL-ApoM in the HDL fraction [1]: did not show a difference
- level of HDL-S1P in the HDL fraction [1]: did not show a difference
- level of S1P in plasma [1]: did not show a difference
- tau deposition (AT8) in brain tissue (tau): did not show a significant difference
